From patent publication US12533321B2, “Polypeptide formulations for oral delivery” (Bhami's Research Laboratory, Pvt. Ltd., priority 2022, dated 2026)

Legend:
Assay type in all cases: in vivo, Minipigs
[1] = Pharmacokinetics of adalimumab in albumin crystal capsule (Vitamin E) vs IV, plasma adalimumab by ELISA; set-up: Mean adalimumab levels: unit not given here; details: 12 mg; for Mean adalimumab levels: plasma, Pigs
Source text: The microparticle of albumin crystals containing adalimumab was then lyophilized after washing with cold isopropanol. […] The capsule was then closed.
(§1) Pigs in the oral treatment group was either fasted overnight or fed prior to the test sample administration. […] The time of dosage of each animal was noted. […] An antibody, anti-adalimumab was pre-coated onto a 96-well plate. […] The intensity of the yellow color is proportional to the adalimumab amount bound on the plate.

[2] = Pharmacokinetics of adalimumab in albumin crystal sugar truffle shell vs IV, plasma adalimumab by ELISA; set-up: Mean adalimumab levels: unit not given here; details: 12 mg; for Mean adalimumab levels: plasma, Pigs
Source text: The microparticle of albumin crystals containing adalimumab was then lyophilized after washing with cold isopropanol.
as §1

[3] = Pharmacokinetics of hGH in albumin crystal sugar truffle shell vs IV, plasma hGH by ELISA; details: 0.33 mg; for Mean hGH levels: plasma, Pigs
Source text: The microparticle of albumin crystals containing hGH was then lyophilized after washing with cold isopropanol.
as §1, with “anti-hGH” for “anti-adalimumab”, “hGH” for “adalimumab”

[4] = Pharmacokinetics of hGH in albumin crystal capsule (Vitamin E) vs IV, plasma hGH by ELISA
Source text: The microparticle of albumin crystals containing hGH was then lyophilized after washing with cold isopropanol. […] The capsule was then closed.
as §1, with “anti-hGH” for “anti-adalimumab”, “hGH” for “adalimumab”

adalimumab
AUC 0-inf_obs ([1]; Minipigs): 2387.704908 µg·h/mL | AUC 0-inf_pred ([1]; Minipigs): 2433.025437 µg·h/mL | AUC t-inf_obs ([1]; Minipigs): 1464.822434 µg·h/mL | AUC t-inf_pred ([1]; Minipigs): 1510.142963 µg·h/mL | AUC(0-t) ([1]; Minipigs): 922.8824739 µg·h/mL | AUMC 0-inf_obs ([1]; Minipigs): 476541890.8 ng/ml * h^2 | AUMC 0-inf_pred ([1]; Minipigs): 490022798.4 ng/ml * h^2 | AUMC 0-t ([1]; Minipigs): 40820243.03 ng/ml * h^2 | AUMC 0-t/0-inf_obs ([1]; Minipigs): 0.08566 | AUMC 0-t/0-inf_pred ([1]; Minipigs): 0.0833 | AUMC t-inf_obs ([1]; Minipigs): 435721647.8 ng/ml * h^2 | AUMC t-inf_pred ([1]; Minipigs): 449202555.4 ng/ml * h^2 | C0 ([1]; Minipigs): 8311 ng/mL | Cl_obs ([1]; Minipigs): 5.026E−06 (mg)/(ng/ml)/h | Cl_pred ([1]; Minipigs): 4.932E−06 (mg)/(ng/ml)/h | Clast_obs ([1]; Minipigs): 7271 ng/mL | Clast_pred ([1]; Minipigs): 7496 ng/mL | Cmax ([1]; Minipigs): 12110.42857 ng/mL | Lambda_z ([1]; Minipigs): 0.00496 h⁻¹ | MRT 0-inf_obs ([1]; Minipigs): 199.6 h | MRT 0-inf_pred ([1]; Minipigs): 201.4 h | MRT 0-t ([1]; Minipigs): 44.23 h | Tlast ([1]; Minipigs): 96 h | Tmax ([1]; Minipigs): 2 h | Vss_obs ([1]; Minipigs): 0.001003 (mg)/(ng/ml) | Vss_pred ([1]; Minipigs): 0.0009934 (mg)/(ng/ml) | Vz_obs ([1]; Minipigs): 0.001012 (mg)/(ng/ml) | Vz_pred ([1]; Minipigs): 0.0009936 (mg)/(ng/ml) | t½ ([1]; Minipigs): 139.6393 h | Mean adalimumab levels ([1]; 0 hrs): 8311.04 | Mean adalimumab levels ([1]; 0.08 hrs): 11638.36 | Mean adalimumab levels ([1]; 0.5 hrs): 11171.29 | Mean adalimumab levels ([1]; 1 hrs): 11637.57 | Mean adalimumab levels ([1]; 2 hrs): 11541.29 | Mean adalimumab levels ([1]; 4 hrs): 12110.43 | Mean adalimumab levels ([1]; 8 hrs): 11914.71 | Mean adalimumab levels ([1]; 24 hrs): 11552.57 | Mean adalimumab levels ([1]; 48 hrs): 10162.00 | Mean adalimumab levels ([1]; 72 hrs): 9803.00 | Mean adalimumab levels ([1]; 96 hrs): 8772.00 | AUC 0-inf_obs ([2]; Minipigs): 2387.704908 µg·h/mL | AUC 0-inf_pred ([2]; Minipigs): 2433.025437 µg·h/mL | AUC t-inf_obs ([2]; Minipigs): 1464.822434 µg·h/mL | AUC t-inf_pred ([2]; Minipigs): 1510.142963 µg·h/mL | AUC(0-t) ([2]; Minipigs): 922.8824739 µg·h/mL | AUMC 0-inf_obs ([2]; Minipigs): 476541890.8 ng/ml * h^2 | AUMC 0-inf_pred ([2]; Minipigs): 490022798.4 ng/ml * h^2 | AUMC 0-t ([2]; Minipigs): 40820243.03 ng/ml * h^2 | AUMC 0-t/0-inf_obs ([2]; Minipigs): 0.08566 | AUMC 0-t/0-inf_pred ([2]; Minipigs): 0.0833 | AUMC t-inf_obs ([2]; Minipigs): 435721647.8 ng/ml * h^2 | AUMC t-inf_pred ([2]; Minipigs): 449202555.4 ng/ml * h^2 | C0 ([2]; Minipigs): 8311 ng/mL | Cl_obs ([2]; Minipigs): 5.026E−06 (mg)/(ng/ml)/h | Cl_pred ([2]; Minipigs): 4.932E−06 (mg)/(ng/ml)/h | Clast_obs ([2]; Minipigs): 7271 ng/mL | Clast_pred ([2]; Minipigs): 7496 ng/mL | Cmax ([2]; Minipigs): 12110.42857 ng/mL | Lambda_z ([2]; Minipigs): 0.00496 h⁻¹ | MRT 0-inf_obs ([2]; Minipigs): 199.6 h | MRT 0-inf_pred ([2]; Minipigs): 201.4 h | MRT 0-t ([2]; Minipigs): 44.23 h | Tlast ([2]; Minipigs): 96 h | Tmax ([2]; Minipigs): 2 h | Vss_obs ([2]; Minipigs): 0.001003 (mg)/(ng/ml) | Vss_pred ([2]; Minipigs): 0.0009934 (mg)/(ng/ml) | Vz_obs ([2]; Minipigs): 0.001012 (mg)/(ng/ml) | Vz_pred ([2]; Minipigs): 0.0009936 (mg)/(ng/ml) | t½ ([2]; Minipigs): 139.6393 h | Mean adalimumab levels ([2]; 0 hrs): 8311.04 | Mean adalimumab levels ([2]; 0.08 hrs): 11638.36 | Mean adalimumab levels ([2]; 0.5 hrs): 11171.29 | Mean adalimumab levels ([2]; 1 hrs): 11637.57 | Mean adalimumab levels ([2]; 2 hrs): 11541.29 | Mean adalimumab levels ([2]; 4 hrs): 12110.43 | Mean adalimumab levels ([2]; 8 hrs): 11914.71 | Mean adalimumab levels ([2]; 24 hrs): 11552.57 | Mean adalimumab levels ([2]; 48 hrs): 10162.00 | Mean adalimumab levels ([2]; 72 hrs): 9803.00 | Mean adalimumab levels ([2]; 96 hrs): 8772.00

hGH: human growth hormone (human recombinant), given IV
AUC 0-inf_obs ([3]; Minipigs): 0.160057765 µg·h/mL | AUC 0-inf_pred ([3]; Minipigs): 0.158135382 µg·h/mL | AUC t-inf_obs ([3]; Minipigs): 0.005998634 µg·h/mL | AUC t-inf_pred ([3]; Minipigs): 0.004076251 µg·h/mL | AUC(0-t) ([3]; Minipigs): 0.154059131 µg·h/mL | AUMC 0-inf_obs ([3]; Minipigs): 1696005.242 pg/ml * h^2 | AUMC 0-inf_pred ([3]; Minipigs): 1578826.575 pg/ml * h^2 | AUMC 0-t ([3]; Minipigs): 1330359.118 pg/ml * h^2 | AUMC 0-t/0-inf_obs ([3]; Minipigs): 0.784 | AUMC 0-t/0-inf_pred ([3]; Minipigs): 0.843 | AUMC t-inf_obs ([3]; Minipigs): 365646.123 pg/ml * h^2 | AUMC t-inf_pred ([3]; Minipigs): 248467.457 pg/ml * h^2 | C0 ([3]; Minipigs): 18.14454 ng/mL | Cl_obs ([3]; Minipigs): 0.000 (mg)/(pg/ml)/h | Clast_obs ([3]; Minipigs): 0.46304 ng/mL | Clast_pred ([3]; Minipigs): 0.31465 ng/mL | Cmax ([3]; Minipigs): 22.5132 ng/mL | Lambda_z ([3]; Minipigs): 0.077 h⁻¹ | MRT 0-inf_obs ([3]; Minipigs): 10.596 h | MRT 0-inf_pred ([3]; Minipigs): 9.984 h | MRT 0-t ([3]; Minipigs): 8.635 h | Tlast ([3]; Minipigs): 48.000 h | Tmax ([3]; Minipigs): 0.500 h | Vss_obs ([3]; Minipigs): 0.000 (mg)/(pg/ml) | Vz_obs ([3]; Minipigs): 0.000 (mg)/(pg/ml) | t½ ([3]; Minipigs): 8.980 h | Mean hGH levels ([3]; 0 hrs): 18144.54 ± 1619.64 pg/mL | Mean hGH levels ([3]; 0.08 hrs): 20014.87 ± 620.32 pg/mL | Mean hGH levels ([3]; 0.5 hrs): 22513.2 ± 562.85 pg/mL | Mean hGH levels ([3]; 1 hrs): 22130.7 ± 728.54 pg/mL | Mean hGH levels ([3]; 4 hrs): 14910.13 ± 2908.87 pg/mL | Mean hGH levels ([3]; 8 hrs): 1159.19 ± 226.15 pg/mL | Mean hGH levels ([3]; 24 hrs): 1495.55 ± 291.77 pg/mL | Mean hGH levels ([3]; 48 hrs): 463.04 ± 90.34 pg/mL | Mean hGH levels ([4]; 0 h): 18144.54 ± 1619.64 pg/mL | AUC 0-inf_obs ([4]; 0.33 mg, Minipigs): 0.160057765 µg·h/mL | AUC 0-inf_pred ([4]; 0.33 mg, Minipigs): 0.158135382 µg·h/mL | AUC t-inf_obs ([4]; 0.33 mg, Minipigs): 0.005998634 µg·h/mL | AUC t-inf_pred ([4]; 0.33 mg, Minipigs): 0.004076251 µg·h/mL | AUC(0-t) ([4]; 0.33 mg, Minipigs): 0.154059131 µg·h/mL | AUMC 0-inf_obs ([4]; 0.33 mg, Minipigs): 1696005.242 pg/ml * h^2 | AUMC 0-inf_pred ([4]; 0.33 mg, Minipigs): 1578826.575 pg/ml * h^2 | AUMC 0-t ([4]; 0.33 mg, Minipigs): 1330359.118 pg/ml * h^2 | AUMC 0-t/0-inf_obs ([4]; 0.33 mg, Minipigs): 0.784 | AUMC 0-t/0-inf_pred ([4]; 0.33 mg, Minipigs): 0.843 | AUMC t-inf_obs ([4]; 0.33 mg, Minipigs): 365646.123 pg/ml * h^2 | AUMC t-inf_pred ([4]; 0.33 mg, Minipigs): 248467.457 pg/ml * h^2 | C0 ([4]; 0.33 mg, Minipigs): 18.14454 ng/mL | Cl_obs ([4]; 0.33 mg, Minipigs): 0.000 (mg)/(pg/ml)/h | Clast_obs ([4]; 0.33 mg, Minipigs): 0.46304 ng/mL | Clast_pred ([4]; 0.33 mg, Minipigs): 0.31465 ng/mL | Cmax ([4]; 0.33 mg, Minipigs): 22.5132 ng/mL | Lambda_z ([4]; 0.33 mg, Minipigs): 0.077 h⁻¹ | MRT 0-inf_obs ([4]; 0.33 mg, Minipigs): 10.596 h | MRT 0-inf_pred ([4]; 0.33 mg, Minipigs): 9.984 h | MRT 0-t ([4]; 0.33 mg, Minipigs): 8.635 h | Tlast ([4]; 0.33 mg, Minipigs): 48.000 h | Tmax ([4]; 0.33 mg, Minipigs): 0.500 h | Vss_obs ([4]; 0.33 mg, Minipigs): 0.000 (mg)/(pg/ml) | Vz_obs ([4]; 0.33 mg, Minipigs): 0.000 (mg)/(pg/ml) | t½ ([4]; 0.33 mg, Minipigs): 8.980 h | Mean hGH levels ([4]; 0.08 h): 20014.87 ± 620.32 pg/mL | Mean hGH levels ([4]; 0.5 h): 22513.2 ± 562.85 pg/mL | Mean hGH levels ([4]; 1 h): 22130.7 ± 728.54 pg/mL | Mean hGH levels ([4]; 4 h): 14910.13 ± 2908.87 pg/mL | Mean hGH levels ([4]; 8 h): 1159.19 ± 226.15 pg/mL | Mean hGH levels ([4]; 24 h): 1495.55 ± 291.77 pg/mL | Mean hGH levels ([4]; 48 h): 463.04 ± 90.34 pg/mL
